Results as given in patent US20110177070A1 (EMERGENT PRODUCT DEVELOPMENT SEATLLE, published 2011).

B1: Xceptor fusion protein TRU(XT6)-1006 (Fc fusion)
chain: LPAQVAFTPYAPEPGSTCRLREYYDQTAQMCCSKCSPGQHAKVFCTKTSDTVCDSCEDSTYTQLWNWVPECLSCGSRCSSDQVETQACTREQNRICTCRPGWYCALSKQEGCRLCAPLRKCRPGFGVARPGTETSDVVCKPCAPGTFSNTTSSTDICRPHQICNVVAIPGNASMDAVCTSTSPTRSMAPGAVHLPQPVSTRSQHTQPTPEPSTAPSTSFLLPMGPSPPAEGSTGDTGEPKSSDKTHTCPPCPAPEAAGAPSVFLFPPKPKDTLMISRTPEVTCVVVDVSHEDPEVKFNWYVDGVEVHNAKTKPREEQYNSTYRVVSVLTVLHQDWLNGKAYACAVSNKALPAPIEKTISKAKGQPREPQVYTLPPSRDELTKNQVSLTCLVKGFYPSDIAVEWESNGQPENNYKTTPPVLDSDGSFFLYSKLTVDKSRWQQGNVFSCSVMHEALHNHYTQKSLSLSPGQRHNNSSLNTRTQKARHSPNSEVQLLESGGGLVQPGGSLRLSCAASGFTFSQYNMIWVRQAPGKGLEWVSWISSSGGTEYADSVKGRFTISRDNSKNTLYLQMNSLRAEDTAVYYCAKDRGYGSGSYGAYDAFDIWGQGTMVTVSSGGGGSGGGGSGGGGSQDIQMTQSPSSLSASVGDRVTITCQTSQSIDRYLNWYQQKAGEAPKLLIYAASSLQSGVPSRFSGSGSGTDFTLTISSLQPEDFASYYCQQSYRTPRTFGQGTKVEIK
notes: Xceptor TNFRSF1B::anti-HIL6
B2: recombinant human sIL-6R (receptor)
chain: LAPRRCPAQEVARGVLTSLPGDSVTLTCPGVEPEDNATVHWVLRKPAAGSHPSRWAGMGRRLLLRSVQLHDSGNYSCYRAGRPAGTVHLLVDVPPEEPQLSCFRKSPLSNVVCEWGPRSTPSLTTKAVLLVRKFQNSPAEDFQEPCQYSQESQKFSCQLAVPEGDSSFYIVSMCVASSVGSKFSKTQTFQGCGILQPDPPANITVTAVARNPRWLSVTWQDPHSWNSSFYRLRFELRYRAERSKTFTTWMVKDLQHHCVIHDAWSGLRHVVQLRAQEEFGQGEWSEWSPEAMGTPWTESRSPPAENEVSTPMQALTTNKDDDNILFRDSANATSLPVQD
notes: Bought soluble receptor; also called human soluble IL6R; IL6R alone

Experiments:
recombinant human TNF-α = molecular target: T1, recombinant human TNF-α (human, UniProt P01375 77-233); experiment: dual-ligand ELISA: plate-coated HIL-6, Xceptor, 2 ng/ml TNF-α, anti-human TNF-α-biotin
T1 construct: also called rhTNF-α
Procedure: Added to each well of a 96-well plate was 100 μl human HIL-6 solution (5 μg/ml in PBS, pH 7.2-7.4). The plate was covered, and incubated overnight at 4° C. After washing four times with PBS-T, then 250 μl Blocking buffer was added to each well, the plate was covered, and incubated at room temperature for 2 hours (or at 4° C. overnight). After washing the plate three times with PBS-T, added in duplicate wells to the HIL-6 coated plate was 100 μl/well Xceptor TNFRSF1B::HIL6 samples serially diluted three-fold in Working buffer starting at 300 ng/ml. Negative controls included human gp130-Fc chimera (R&D Systems, Minneapolis, Minn.), Enbrel® (etanercept), and Working buffer only. The plate was covered and incubated at room temperature for 1.5 hours. After washing the plate five times with PBS-T, 100 μl per well recombinant human TNF-α (R&D Systems, Minneapolis, Minn.) to 2 ng/ml in Working buffer was added, the plate was covered, and incubated at room temperature for 1.5 hr. After washing the plate five times with PBS-T, 100 μl per well anti-human TNF-α-biotin (R&D Systems) to 200 ng/ml in Working buffer was added, the plate was covered, and incubated at room temperature for 1.5 hr. […] The absorbance of each well was read at 450 nm.

[1] = molecular target: Xceptor fusion protein TRU(XT6)-1042; experiment: sandwich ELISA: Xceptor captured on anti-human IgG-Fc, sIL-6R, anti-human IL-6R-biotin
Procedure: Added to each well of a 96-well plate was 100 μl goat anti-human IgG-Fc (ICN Pharmaceuticals, Costa Mesa, Calif.) from a 2 μg/ml solution in PBS, pH 7.2-7.4, The plates were covered, and incubated overnight at 4° C. After washing four times with PBS-T, 250 μl Blocking buffer (PBS-T with 3% BSA or 10% normal goat serum) was added to each well, the plate was covered, and incubated at room temperature for 2 hours (or at 4° C. overnight). After washing the plate three times with PBS-T, added in duplicate wells to the anti-human IgG-Fc coated plate was 100 μl/well Xceptor TNFRSF1B::anti-HIL6 samples, positive control anti-human IL-6R(R&D Systems, Minneapolis, Minn.) and negative controls human IgG or human gp130-Fc chimera (R&D Systems), each serially diluted three-fold in Working buffer starting at 300 ng/ml, the plate was covered, and incubated at room temperature for about 1 to 2 hours. After washing the plate five times with PBS-T, added in duplicate wells was 100 μl/well recombinant human sIL-6R(R&D Systems) from a 75 pM solution in Working buffer, the plate was covered, and incubated at room temperature for about 1 to 2 hours. After washing the plate five times with PBS-T, added 100 μl/well anti-human IL-6R-biotin (R&D Systems) from a 100 ng/ml solution in Working buffer, the plate was covered, and incubated at room temperature for about 1 to 2 hours. After washing the plate five times with PBS-T, 100 μl per well horse radish peroxidase-conjugated streptavidin (Zymed, San Francisco, Calif.) diluted 1:4,000 in Working buffer was added, the plate was covered, and incubated at room temperature for 30 minutes. After washing the plate six times with PBS-T, 100 μl per well 3,3,5,5-tetramentylbenzidine (TMB) substrate solution (Pierce, Rockford, Ill.) was added for about 3 to 5 minutes and then the reaction was stopped with 50 μl Stop buffer (1N H₂SO₄) per well. The absorbance of each well was read at 450 nm.

T1 sequence (P01375 77-233 limits assumed): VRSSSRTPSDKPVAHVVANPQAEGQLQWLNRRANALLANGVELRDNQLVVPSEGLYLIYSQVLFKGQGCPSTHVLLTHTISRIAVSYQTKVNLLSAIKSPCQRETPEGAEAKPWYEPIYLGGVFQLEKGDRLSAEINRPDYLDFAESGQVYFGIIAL

Binder | binding result (recombinant human TNF-α) | binding result [1]
B1 | binds | 
B2 |  | no binding (tested: Xceptor from 300 ng/ml; sIL-6R 75 pM)
